This note sets out measurements from PMC3218832.

Data set [1] has as its system RELA (p65) subunit of heterodimer;p50 subunit (Homo sapiens;Homo sapiens). Nature of the data set: EMSA-Seq. Particulars: Footprinting/EMSA: 10 mM Tris pH 7.4, 75 mM NaCl, 1 mM EDTA, 1 mM DTT, 200 ug/ml BSA, 0.005% NP-40, EMSA-Seq: 12 mM HEPES pH 7.8, 75 mM KCl, 4 mM ….
Data set [2] has as its system RELA (p65) subunit of heterodimer;p52 subunit (Homo sapiens;Homo sapiens). Kind of data set: EMSA-Seq. Conditions: Footprinting/EMSA: 10 mM Tris pH 7.4, 75 mM NaCl, 1 mM EDTA, 1 mM DTT, 200 ug/ml BSA, 0.005% NP-40, EMSA-Seq: 12 mM HEPES pH 7.8, 75 mM KCl, 4 mM ….
Data set [3] deals with RELARELA (p65 homodimer) (Homo sapiens). Kind of data set: EMSA-Seq. Conditions: Footprinting/EMSA: 10 mM Tris pH 7.4, 75 mM NaCl, 1 mM EDTA, 1 mM DTT, 200 ug/ml BSA, 0.005% NP-40, EMSA-Seq: 12 mM HEPES pH 7.8, 75 mM KCl, 4 mM ….
Data set [4] deals with RELARELA (p65 homodimer) (Homo sapiens) (UniProt Q04206). Kind of data set: footprint. Conditions: UV laser footprinting: 10 mM Tris pH 7.4, 75 mM NaCl, 1 mM EDTA, 1 mM DTT, 200 ug/ml BSA, 0.005% NP-40; microarray buffer in Additional file 1 (not seen); low values mean tight binding.
In data set [5] the target is RELA (p65) subunit of heterodimer;p50 subunit (Homo sapiens;Homo sapiens) (UniProt Q04206+P19838). Kind of data set: footprint. Conditions: UV laser footprinting: 10 mM Tris pH 7.4, 75 mM NaCl, 1 mM EDTA, 1 mM DTT, 200 ug/ml BSA, 0.005% NP-40; microarray buffer in Additional file 1 (not seen); low values mean tight binding.
Data set [6] concerns the target RELA (p65) subunit of heterodimer;p52 subunit (Homo sapiens;Homo sapiens) (UniProt Q04206+Q00653). Kind of data set: footprint. Conditions: UV laser footprinting: 10 mM Tris pH 7.4, 75 mM NaCl, 1 mM EDTA, 1 mM DTT, 200 ug/ml BSA, 0.005% NP-40; microarray buffer in Additional file 1 (not seen); low values mean tight binding.
Data set [7] relates to RELA (p65) subunit of heterodimer;p50 subunit (Homo sapiens;Homo sapiens). Nature of the data set: UV laser footprinting. Conditions: Footprinting/EMSA: 10 mM Tris pH 7.4, 75 mM NaCl, 1 mM EDTA, 1 mM DTT, 200 ug/ml BSA, 0.005% NP-40, EMSA-Seq: 12 mM HEPES pH 7.8, 75 mM KCl, 4 mM ….
For data set [8], the system named is RELA (p65) subunit of heterodimer;p52 subunit (Homo sapiens;Homo sapiens). Kind of data set: UV laser footprinting. Particulars: Footprinting/EMSA: 10 mM Tris pH 7.4, 75 mM NaCl, 1 mM EDTA, 1 mM DTT, 200 ug/ml BSA, 0.005% NP-40, EMSA-Seq: 12 mM HEPES pH 7.8, 75 mM KCl, 4 mM ….
The test system of data set [9] is RELARELA (p65 homodimer) (Homo sapiens). Kind of data set: UV laser footprinting. Conditions: Footprinting/EMSA: 10 mM Tris pH 7.4, 75 mM NaCl, 1 mM EDTA, 1 mM DTT, 200 ug/ml BSA, 0.005% NP-40, EMSA-Seq: 12 mM HEPES pH 7.8, 75 mM KCl, 4 mM ….
Data set [10] concerns RELA (p65) subunit of heterodimer;p50 subunit (Homo sapiens;Homo sapiens). Kind of data set: protein binding microarray. Conditions: Footprinting/EMSA: 10 mM Tris pH 7.4, 75 mM NaCl, 1 mM EDTA, 1 mM DTT, 200 ug/ml BSA, 0.005% NP-40, EMSA-Seq: 12 mM HEPES pH 7.8, 75 mM KCl, 4 mM ….
Data set [11] concerns RELA (p65) subunit of heterodimer;p52 subunit (Homo sapiens;Homo sapiens). Nature of the data set: protein binding microarray. Particulars: Footprinting/EMSA: 10 mM Tris pH 7.4, 75 mM NaCl, 1 mM EDTA, 1 mM DTT, 200 ug/ml BSA, 0.005% NP-40, EMSA-Seq: 12 mM HEPES pH 7.8, 75 mM KCl, 4 mM ….
For data set [12], the system named is RELARELA (p65 homodimer) (Homo sapiens). Nature of the data set: protein binding microarray. Conditions: Footprinting/EMSA: 10 mM Tris pH 7.4, 75 mM NaCl, 1 mM EDTA, 1 mM DTT, 200 ug/ml BSA, 0.005% NP-40, EMSA-Seq: 12 mM HEPES pH 7.8, 75 mM KCl, 4 mM ….

RELA (p65) subunit of heterodimer;p50 subunit (Homo sapiens;Homo sapiens) (UniProt Q04206+P19838), sequence (Q04206 1-307, chain 1 of 2): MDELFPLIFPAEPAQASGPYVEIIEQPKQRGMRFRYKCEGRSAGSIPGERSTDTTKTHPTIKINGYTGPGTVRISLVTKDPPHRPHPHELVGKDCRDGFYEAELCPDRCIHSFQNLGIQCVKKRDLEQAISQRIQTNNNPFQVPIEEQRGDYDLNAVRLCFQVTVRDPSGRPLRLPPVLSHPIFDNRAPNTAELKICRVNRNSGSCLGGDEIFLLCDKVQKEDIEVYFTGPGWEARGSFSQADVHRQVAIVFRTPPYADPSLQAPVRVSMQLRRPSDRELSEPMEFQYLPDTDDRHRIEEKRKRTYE
RELA (p65) subunit of heterodimer;p50 subunit (Homo sapiens;Homo sapiens) (UniProt Q04206+P19838), sequence (P19838 7-356, chain 2 of 2): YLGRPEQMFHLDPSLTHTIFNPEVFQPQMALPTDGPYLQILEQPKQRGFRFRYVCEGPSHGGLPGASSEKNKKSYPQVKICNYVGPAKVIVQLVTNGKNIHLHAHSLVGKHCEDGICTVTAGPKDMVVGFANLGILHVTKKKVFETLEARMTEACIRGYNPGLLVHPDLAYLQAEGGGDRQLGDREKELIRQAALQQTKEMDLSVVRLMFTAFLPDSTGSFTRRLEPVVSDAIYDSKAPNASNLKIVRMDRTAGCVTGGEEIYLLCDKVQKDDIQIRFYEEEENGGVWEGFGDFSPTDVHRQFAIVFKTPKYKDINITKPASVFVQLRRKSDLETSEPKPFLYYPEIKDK
RELA (p65) subunit of heterodimer;p52 subunit (Homo sapiens;Homo sapiens) (UniProt Q04206+Q00653), sequence (Q04206 1-307, chain 1 of 2): as the sequence (Q04206 1-307, chain 1 of 2) above
RELA (p65) subunit of heterodimer;p52 subunit (Homo sapiens;Homo sapiens) (UniProt Q04206+Q00653), sequence (Q00653 4-332, chain 2 of 2): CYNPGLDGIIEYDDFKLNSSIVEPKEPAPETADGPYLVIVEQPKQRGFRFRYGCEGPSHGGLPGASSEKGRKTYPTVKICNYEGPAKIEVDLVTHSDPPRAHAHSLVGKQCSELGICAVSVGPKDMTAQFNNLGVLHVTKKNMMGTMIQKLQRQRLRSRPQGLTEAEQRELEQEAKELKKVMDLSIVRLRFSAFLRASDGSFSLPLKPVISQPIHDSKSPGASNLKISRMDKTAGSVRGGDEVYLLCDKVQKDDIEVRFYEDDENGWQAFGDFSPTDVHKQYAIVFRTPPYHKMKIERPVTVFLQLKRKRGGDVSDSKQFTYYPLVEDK
RELARELA (p65 homodimer) (Homo sapiens) (UniProt Q04206), sequence (Q04206 1-307): as the sequence (Q04206 1-307, chain 1 of 2) above

As to AGGAAATTCCG 11-mer in EMSA-Seq ligands, the binding signal in [1] was 20.4 z-score; in data set [2] it was 13 z-score; in [3], 40.9 z-score.
Take AGGAAATTCCG (double strand): the figures for the binding signal (Kd, unit not seen) in data set [4], in data set [5] and in data set [6] were 3.25, 4.6 and 1.7, respectively.
As for AGGAAATTCCG footprint probe, the figures for the Kd in [7], in data set [8] and in data set [9] were 4.6 nM, 1.7 nM and 3.25 nM, respectively.
For AGGAAATTCCG microarray probes, the binding signal was 1.2 z-score in data set [10], 0.55 z-score in data set [11] and 3.7 z-score in [12].
As for AGGGGAAGTTA 11-mer in EMSA-Seq ligands, the binding signal in data set [1] is 35.4 z-score; in data set [2], 27.5 z-score; in [3], 3.78 z-score.
For AGGGGAAGTTA footprint probe, the values for the Kd in data set [7] and in data set [8] were 26 nM and 20 nM, respectively.
For AGGGGGATCTG 11-mer in EMSA-Seq ligands, the values for the binding signal in [1] and in [2] were 23.1 z-score and 18.4 z-score, respectively.
As for AGGGGGATCTG (double strand), the binding signal (Kd, unit not seen) in data set [5] stood at 10.5; in data set [6] it was 2.
Regarding AGGGGGATCTG footprint probe, the Kd in data set [7] was found to be 10.5 nM; in data set [8], 2 nM.
For the sequence AGGGGGATCTG microarray probes, the results for the binding signal in data set [10] and in data set [11] were 2.39 z-score and 1.76 z-score, respectively.
As to CTGGGGATTTA 11-mer in EMSA-Seq ligands, the binding signal was 24.2 z-score in [1], 19.5 z-score in data set [2] and 10.8 z-score in [3].
Consider CTGGGGATTTA footprint probe, for which the Kd amounted to 16 nM in [7] and 13.8 nM in [8].
